Results published in US20240400638A1, “COMBINATION OF RELAXIN AND VASOPRESSIN ANALOGUES FOR TREATMENT OF RENAL DISORDERS OR CONDITIONS” (River 2 Renal Corp., priority 2021, published 2024).
Numbered stars: 1 amine (or outer) side, 2 acyl side, 3 side chain; on linkers, the order of the positions; unused ones are H or OH. Square brackets hold non-standard residues; d marks the D form. Side chains are listed from the residue outwards. * marks the point of attachment. TTDS = 4-[3-[2-[2-(3-aminopropoxy)ethoxy]ethoxy]propylamino]-4-oxo-butanoyl; γGlu = O=C(O)[C@H](CCC(=O)[*:2])N[*:1]; Stearoyl = CCCCCCCCCCCCCCCCCC(=O)*; Palmitoyl = CCCCCCCCCCCCCCCC(=O)*; αMeK = C[C@](N)(CCCCN)C(=O)O; hLys = NCCCCC[C@H](N)C(=O)O; AEEA = NCCOCCOCC(=O)O; Aib = CC(C)(N)C(=O)O

T1: human RXFP1 (human, UniProt Q9HBX9 1-757)
T1 sequence (looked up): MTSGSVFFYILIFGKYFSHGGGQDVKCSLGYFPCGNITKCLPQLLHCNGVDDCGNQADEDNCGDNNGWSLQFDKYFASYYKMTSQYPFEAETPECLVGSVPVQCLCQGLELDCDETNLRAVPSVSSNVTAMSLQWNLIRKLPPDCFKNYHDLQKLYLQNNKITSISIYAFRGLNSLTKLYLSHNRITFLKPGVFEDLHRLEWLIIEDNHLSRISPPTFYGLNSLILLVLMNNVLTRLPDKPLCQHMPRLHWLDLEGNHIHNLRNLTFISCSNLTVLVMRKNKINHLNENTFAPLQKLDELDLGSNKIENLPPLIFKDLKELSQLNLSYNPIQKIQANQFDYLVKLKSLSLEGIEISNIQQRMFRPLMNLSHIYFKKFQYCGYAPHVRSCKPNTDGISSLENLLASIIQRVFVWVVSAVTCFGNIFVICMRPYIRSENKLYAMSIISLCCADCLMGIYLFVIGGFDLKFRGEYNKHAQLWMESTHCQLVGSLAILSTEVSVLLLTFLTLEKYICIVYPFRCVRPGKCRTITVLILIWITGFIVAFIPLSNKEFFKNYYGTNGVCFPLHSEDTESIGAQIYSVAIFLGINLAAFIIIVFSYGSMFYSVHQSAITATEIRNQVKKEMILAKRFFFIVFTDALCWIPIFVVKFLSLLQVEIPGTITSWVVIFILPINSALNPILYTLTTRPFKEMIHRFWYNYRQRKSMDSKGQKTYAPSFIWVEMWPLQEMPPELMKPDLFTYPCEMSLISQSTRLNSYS

B1: Relaxin peptide analogue of SEQ ID NO: 32 (peptide)
peptide: LEGREKVRAKIXXEGKSTFSKRAK
modifications: Ac-L-E-G-R-E-K-V-R-A-K(Ac)-I-Aib-Aib-E-G-K(PEG2DGA-PEG2DGA-PEG2DGA-gE-gE-gE-Stea)-S-T-F-S-Mly-R-A-K(Ac)-NH2
B2: Relaxin peptide analogue of SEQ ID NO: 22 (peptide)
peptide: LEGREKVRAKIXXEGKSTFSKRAK
modifications: Ac-L-E-G-R-E-K-V-R-A-K(Ac)-I-Aib-Aib-E-G-K(PEG2DGA-PEG2DGA-PEG2DGA-gE-gE-gE-Palm)-S-T-F-S-Mly-R-A-K(Ac)-NH2
B3: Relaxin peptide analogue of SEQ ID NO: 42 (peptide)
peptide: Ac-LEGREKVRAK(Ac)I[Aib][Aib]EGK([AEEA-AEEA-AEEA-AEEA-γGlu-γGlu-γGlu-Palmitoyl])STWS[αMeK]RAK(Ac)-NH2
SMILES: CCCCCCCCCCCCCCCC(=O)N[C@@H](CCC(=O)N[C@@H](CCC(=O)N[C@@H](CCC(=O)NCCOCCOCC(=O)NCCOCCOCC(=O)NCCOCCOCC(=O)NCCOCCOCC(=O)NCCCC[C@H](NC(=O)CNC(=O)[C@H](CCC(=O)O)NC(=O)C(C)(C)NC(=O)C(C)(C)NC(=O)[C@@H](NC(=O)[C@H](CCCCNC(C)=O)NC(=O)[C@H](C)NC(=O)[C@H](CCCNC(=N)N)NC(=O)[C@@H](NC(=O)[C@H](CCCCN)NC(=O)[C@H](CCC(=O)O)NC(=O)[C@H](CCCNC(=N)N)NC(=O)CNC(=O)[C@H](CCC(=O)O)NC(=O)[C@H](CC(C)C)NC(C)=O)C(C)C)[C@@H](C)CC)C(=O)N[C@@H](CO)C(=O)N[C@H](C(=O)N[C@@H](Cc1c[nH]c2ccccc12)C(=O)N[C@@H](CO)C(=O)N[C@@](C)(CCCCN)C(=O)N[C@@H](CCCNC(=N)N)C(=O)N[C@@H](C)C(=O)N[C@@H](CCCCNC(C)=O)C(N)=O)[C@@H](C)O)C(=O)O)C(=O)O)C(=O)O
B4: Relaxin peptide analogue of SEQ ID NO: 21 (peptide)
peptide: Ac-LEGREKVRAK(Ac)I[Aib][Aib]EGK([AEEA-AEEA-AEEA-AEEA-γGlu-γGlu-γGlu-Stearoyl])STWS[Aib]RKK(Ac)-NH2
SMILES: CCCCCCCCCCCCCCCCCC(=O)N[C@@H](CCC(=O)N[C@@H](CCC(=O)N[C@@H](CCC(=O)NCCOCCOCC(=O)NCCOCCOCC(=O)NCCOCCOCC(=O)NCCOCCOCC(=O)NCCCC[C@H](NC(=O)CNC(=O)[C@H](CCC(=O)O)NC(=O)C(C)(C)NC(=O)C(C)(C)NC(=O)[C@@H](NC(=O)[C@H](CCCCNC(C)=O)NC(=O)[C@H](C)NC(=O)[C@H](CCCNC(=N)N)NC(=O)[C@@H](NC(=O)[C@H](CCCCN)NC(=O)[C@H](CCC(=O)O)NC(=O)[C@H](CCCNC(=N)N)NC(=O)CNC(=O)[C@H](CCC(=O)O)NC(=O)[C@H](CC(C)C)NC(C)=O)C(C)C)[C@@H](C)CC)C(=O)N[C@@H](CO)C(=O)N[C@H](C(=O)N[C@@H](Cc1c[nH]c2ccccc12)C(=O)N[C@@H](CO)C(=O)NC(C)(C)C(=O)N[C@@H](CCCNC(=N)N)C(=O)N[C@@H](CCCCN)C(=O)N[C@@H](CCCCNC(C)=O)C(N)=O)[C@@H](C)O)C(=O)O)C(=O)O)C(=O)O
B5: Relaxin peptide analogue of SEQ ID NO: 26 (peptide)
peptide: Ac-LEGREKVRAK(Ac)I[Aib][Aib]EGK([AEEA-AEEA-AEEA-AEEA-γGlu-γGlu-γGlu-Stearoyl])STFS[αMeK]RAK(Ac)-NH2
SMILES: CCCCCCCCCCCCCCCCCC(=O)N[C@@H](CCC(=O)N[C@@H](CCC(=O)N[C@@H](CCC(=O)NCCOCCOCC(=O)NCCOCCOCC(=O)NCCOCCOCC(=O)NCCOCCOCC(=O)NCCCC[C@H](NC(=O)CNC(=O)[C@H](CCC(=O)O)NC(=O)C(C)(C)NC(=O)C(C)(C)NC(=O)[C@@H](NC(=O)[C@H](CCCCNC(C)=O)NC(=O)[C@H](C)NC(=O)[C@H](CCCNC(=N)N)NC(=O)[C@@H](NC(=O)[C@H](CCCCN)NC(=O)[C@H](CCC(=O)O)NC(=O)[C@H](CCCNC(=N)N)NC(=O)CNC(=O)[C@H](CCC(=O)O)NC(=O)[C@H](CC(C)C)NC(C)=O)C(C)C)[C@@H](C)CC)C(=O)N[C@@H](CO)C(=O)N[C@H](C(=O)N[C@@H](Cc1ccccc1)C(=O)N[C@@H](CO)C(=O)N[C@@](C)(CCCCN)C(=O)N[C@@H](CCCNC(=N)N)C(=O)N[C@@H](C)C(=O)N[C@@H](CCCCNC(C)=O)C(N)=O)[C@@H](C)O)C(=O)O)C(=O)O)C(=O)O

molecular target: T1, human RXFP1; experiment: cell-based or functional assay

Binder	EC50 (nM), OVCAR 5 cells (cAMP) [nM]	EMax, OVCAR 5 cells (cAMP) [%]
Ac-LEGRE[hLys]VRAK(Ac)I[Aib][Aib]EGK([TTDS-TTDS-TTDS-γGlu-γGlu-γGlu-Palmitoyl])STFS[αMeK]RAK(Ac)-NH2 [Relaxin peptide analogue of SEQ ID NO: 28]	0.62	88
Ac-LEGREFVRAK(Ac)I[Aib][Aib]EGK([TTDS-TTDS-TTDS-γGlu-γGlu-γGlu-Palmitoyl])STFS[αMeK]RAK(Ac)-NH2 [Relaxin peptide analogue of SEQ ID NO: 24]	36.4	100
Ac-LEGRELVRAK(Ac)I[Aib][Aib]EGK([TTDS-TTDS-TTDS-γGlu-γGlu-γGlu-Palmitoyl])STFS[αMeK]RAK(Ac)-NH2 [Relaxin peptide analogue of SEQ ID NO: 23]	11.1	92
Ac-LEGREQVRAK(Ac)I[Aib][Aib]EGK([TTDS-TTDS-TTDS-γGlu-γGlu-γGlu-Palmitoyl])STFS[αMeK]RAK(Ac)-NH2 [Relaxin peptide analogue of SEQ ID NO: 25]	28.7	100
Ac-LEGREKVRAK(Ac)I[Aib][Aib]EGK([TTDS-TTDS-TTDS-γGlu-γGlu-γGlu-Palmitoyl])STFS[αMeK]RAK(Ac)-NH2 [Relaxin peptide analogue of SEQ ID NO: 3]	0.34	97
Ac-LEGREKVRAK(Ac)I[Aib][Aib]EGK([TTDS-TTDS-TTDS-γGlu-γGlu-γGlu-Palmitoyl])STFS[dK]RAK(Ac)-NH2 [Relaxin peptide analogue of SEQ ID NO: 36]	3.6	93
Ac-LEGRELVRAK(Ac)I[Aib][Aib]EGK([TTDS-TTDS-TTDS-γGlu-γGlu-γGlu-Palmitoyl])STWS[Aib]RRK(Ac)-NH2 [Relaxin peptide analogue of SEQ ID NO: 37]	5.6	98
Ac-LEGRERVRAK(Ac)I[Aib][Aib]EGK([TTDS-TTDS-TTDS-γGlu-γGlu-γGlu-Palmitoyl])STFS[αMeK]RAK(Ac)-NH2 [Relaxin peptide analogue of SEQ ID NO: 27]	1.8	98
Ac-LEGREKVRAK(Ac)I[Aib][Aib]EGK([TTDS-TTDS-γGlu-γGlu-γGlu-Palmitoyl])STWS[Aib]RKK(Ac)-NH2 [Relaxin peptide analogue of SEQ ID NO: 4]	1.5	89
Ac-LEGREKVRAK(Ac)I[Aib][Aib]EGK([TTDS-TTDS-γGlu-γGlu-γGlu-Stearoyl])STFS[αMeK]RAK(Ac)-NH2 [Relaxin peptide analogue of SEQ ID NO: 34]	0.14	90
Ac-LEGREKVR[Aib]K(Ac)I[Aib][Aib]EGK([TTDS-TTDS-TTDS-γGlu-γGlu-γGlu-Palmitoyl])STFS[αMeK]RAK(Ac)-NH2 [Relaxin peptide analogue of SEQ ID NO: 29]	1.6	88
Ac-LEGREFVRAK(Ac)I[Aib][Aib]EGK([TTDS-TTDS-TTDS-γGlu-γGlu-γGlu-Palmitoyl])STWS[Aib]RRK(Ac)-NH2 [Relaxin peptide analogue of SEQ ID NO: 39]	8.7	93
Ac-LEGREKVRAK(Ac)I[Aib][Aib]EGK([TTDS-TTDS-TTDS-γGlu-γGlu-γGlu-Stearoyl])STWS[αMeK]RAK(Ac)-NH2 [Relaxin peptide analogue of SEQ ID NO: 30]	0.21	89
B1	0.1	97
B2	1	92
B3	1.5	84
Ac-LEGREKVRAK(Ac)I[Aib][Aib]EGK([TTDS-TTDS-TTDS-γGlu-γGlu-γGlu-Palmitoyl])STW[Aib]KRAK(Ac)-NH2 [Relaxin peptide analogue of SEQ ID NO: 35]	2.33	91
Ac-LEGRERVRAK(Ac)I[Aib][Aib]EGK([TTDS-TTDS-TTDS-γGlu-γGlu-γGlu-Palmitoyl])STWS[Aib]RRK(Ac)-NH2 [Relaxin peptide analogue of SEQ ID NO: 31]	0.19	94
B4	0.65	93
B5	0.43	96
